T1: FcγRIIb (human, UniProt P31994 43-217)
T1 construct: extracellular domain; Soluble extracellular domain with C-terminal His tag, used as analyte; also called FcgRIIb; CD32B; not shown: His tag at the C terminus
T1 sequence (looked up): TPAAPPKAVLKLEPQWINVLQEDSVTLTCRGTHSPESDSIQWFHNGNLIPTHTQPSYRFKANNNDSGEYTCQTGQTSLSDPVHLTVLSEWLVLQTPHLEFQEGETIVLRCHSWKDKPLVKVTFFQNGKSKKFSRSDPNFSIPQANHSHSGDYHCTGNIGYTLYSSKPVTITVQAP


How the values were obtained:
FcγRIIb = biological target: T1, FcγRIIb; test: SPR (Biacore), captured antibody, FcγR as analyte, relative binding
Protocol: (§1) The heterodimerized antibodies He Abs in which one of the H chains was introduced with an alteration were assayed for their binding activities to each activating FcγR and inhibitory FcγR according to the method described in Example 4. […] The activating FcγRs in FIGS. 26, 27, 28, and 29 are FcγRIa, FcγRIIa (R), FcγRIIa (H), and FcγRIIIa, respectively.
(§2) Analysis of interaction between objective antibody and the FcγR was carried out using Biacore T100 (GE Healthcare). HBS-EP+ (GE Healthcare) was used as the running buffer, and the measurement temperature was set to 25° C. Chips produced by immobilizing the antigen peptide by the amine coupling method to a Series S Sencor Chip CM5 (GE Healthcare), or alternatively, chips produced by allowing preliminarily biotinylated antigen peptides to interact with and immobilize onto a Series S Sensor Chip SA (certified) (GE Healthcare) were used. Antibodies of interest were captured onto an antigen peptide-immobilized chip, and allowed to interact to each FcγR diluted with running buffer. To regenerate and repeatedly use the chip, the antibodies captured on the chip were washed off by reacting 10 mM glycine-HCl, pH 1.5.

FcγRIa = biological target: T2, FcγRIa (human, UniProt P12314 16-292); test: as above
T2 construct: extracellular domain; Soluble extracellular domain with C-terminal His tag, used as analyte; also called FcgRI; CD64; not shown: His tag at the C terminus
Protocol: as §1, §2

T2 sequence (P12314 16-292): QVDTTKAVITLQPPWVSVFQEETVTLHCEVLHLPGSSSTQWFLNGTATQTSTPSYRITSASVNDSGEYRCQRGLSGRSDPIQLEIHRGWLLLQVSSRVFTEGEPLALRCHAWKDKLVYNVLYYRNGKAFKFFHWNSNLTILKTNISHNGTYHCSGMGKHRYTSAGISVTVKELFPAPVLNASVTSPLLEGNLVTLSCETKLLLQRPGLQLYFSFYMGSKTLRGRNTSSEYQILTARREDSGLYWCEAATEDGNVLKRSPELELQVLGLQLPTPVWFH

Binder | He/Con_2b (FcγRIIb) | He/Con_1a (FcγRIa)
GpH7-A5/GpH7-B3 variant Y300_01G/GpL16-k0 (antibody, human IgG1, kappa, He Ab: mutation in one H chain only; also called He Ab) heavy 1: not shown heavy 2: not shown light: DIVMTQSPLSLPVTPGEPASISCQASESLVHSNRNTYLHWYLQKPGQSPQLLIYKVSNRFSGVPDRFSGSGSGTDFTLKISRVEAEDVGVYYCSQNTHVPPTFGQGTKVEIERTVAAPSVFIFPPSDEQLKSGTASVVCLLNNFYPREAKVQWKVDNALQSGNSQESVTEQDSKDSTYSLSSTLTLSKADYEKHKVYACEVTHQGLSSPVTKSFNRGEC | 48.4 % of GpH7-A5/GpH7-B3/GpL16-k0 | 116 % of GpH7-A5/GpH7-B3/GpL16-k0
GpH7-A5/GpH7-B3 variant A327_08L/GpL16-k0 (antibody, human IgG1, kappa, He Ab: mutation in one H chain only; also called He Ab) heavy 1: not shown heavy 2: not shown light: DIVMTQSPLSLPVTPGEPASISCQASESLVHSNRNTYLHWYLQKPGQSPQLLIYKVSNRFSGVPDRFSGSGSGTDFTLKISRVEAEDVGVYYCSQNTHVPPTFGQGTKVEIERTVAAPSVFIFPPSDEQLKSGTASVVCLLNNFYPREAKVQWKVDNALQSGNSQESVTEQDSKDSTYSLSSTLTLSKADYEKHKVYACEVTHQGLSSPVTKSFNRGEC | 63.1 % of GpH7-A5/GpH7-B3/GpL16-k0 | 98.6 % of GpH7-A5/GpH7-B3/GpL16-k0
GpH7-A5/GpH7-B3 variant A327_13S/GpL16-k0 (antibody, human IgG1, kappa, He Ab: mutation in one H chain only; also called He Ab) heavy 1: not shown heavy 2: not shown light: DIVMTQSPLSLPVTPGEPASISCQASESLVHSNRNTYLHWYLQKPGQSPQLLIYKVSNRFSGVPDRFSGSGSGTDFTLKISRVEAEDVGVYYCSQNTHVPPTFGQGTKVEIERTVAAPSVFIFPPSDEQLKSGTASVVCLLNNFYPREAKVQWKVDNALQSGNSQESVTEQDSKDSTYSLSSTLTLSKADYEKHKVYACEVTHQGLSSPVTKSFNRGEC | 79.5 % of GpH7-A5/GpH7-B3/GpL16-k0 | 102 % of GpH7-A5/GpH7-B3/GpL16-k0
GpH7-A5/GpH7-B3 variant A327_04F/GpL16-k0 (antibody, human IgG1, kappa, He Ab: mutation in one H chain only; also called He Ab) heavy 1: not shown heavy 2: not shown light: DIVMTQSPLSLPVTPGEPASISCQASESLVHSNRNTYLHWYLQKPGQSPQLLIYKVSNRFSGVPDRFSGSGSGTDFTLKISRVEAEDVGVYYCSQNTHVPPTFGQGTKVEIERTVAAPSVFIFPPSDEQLKSGTASVVCLLNNFYPREAKVQWKVDNALQSGNSQESVTEQDSKDSTYSLSSTLTLSKADYEKHKVYACEVTHQGLSSPVTKSFNRGEC | 63.7 % of GpH7-A5/GpH7-B3/GpL16-k0 | 99.1 % of GpH7-A5/GpH7-B3/GpL16-k0
GpH7-A5/GpH7-B3 variant A327_05P/GpL16-k0 (antibody, human IgG1, kappa, He Ab: mutation in one H chain only; also called He Ab) heavy 1: not shown heavy 2: not shown light: DIVMTQSPLSLPVTPGEPASISCQASESLVHSNRNTYLHWYLQKPGQSPQLLIYKVSNRFSGVPDRFSGSGSGTDFTLKISRVEAEDVGVYYCSQNTHVPPTFGQGTKVEIERTVAAPSVFIFPPSDEQLKSGTASVVCLLNNFYPREAKVQWKVDNALQSGNSQESVTEQDSKDSTYSLSSTLTLSKADYEKHKVYACEVTHQGLSSPVTKSFNRGEC | 69.3 % of GpH7-A5/GpH7-B3/GpL16-k0 | 99.3 % of GpH7-A5/GpH7-B3/GpL16-k0

Further lines, results first:

He/Con_2b (FcγRIIb) | He/Con_1a (FcγRIa) | Binder
89.5 % of GpH7-A5/GpH7-B3/GpL16-k0 | 104 % of GpH7-A5/GpH7-B3/GpL16-k0 | GpH7-A5/GpH7-B3 variant I336_14T/GpL16-k0 (antibody, human IgG1, kappa, He Ab: mutation in one H chain only; also called He Ab) heavy 1: not shown heavy 2: not shown light: DIVMTQSPLSLPVTPGEPASISCQASESLVHSNRNTYLHWYLQKPGQSPQLLIYKVSNRFSGVPDRFSGSGSGTDFTLKISRVEAEDVGVYYCSQNTHVPPTFGQGTKVEIERTVAAPSVFIFPPSDEQLKSGTASVVCLLNNFYPREAKVQWKVDNALQSGNSQESVTEQDSKDSTYSLSSTLTLSKADYEKHKVYACEVTHQGLSSPVTKSFNRGEC
97.6 % of GpH7-A5/GpH7-B3/GpL16-k0 | 108 % of GpH7-A5/GpH7-B3/GpL16-k0 | GpH7-A5/GpH7-B3 variant I336_18N/GpL16-k0 (antibody, human IgG1, kappa, He Ab: mutation in one H chain only; also called He Ab) heavy 1: not shown heavy 2: not shown light: DIVMTQSPLSLPVTPGEPASISCQASESLVHSNRNTYLHWYLQKPGQSPQLLIYKVSNRFSGVPDRFSGSGSGTDFTLKISRVEAEDVGVYYCSQNTHVPPTFGQGTKVEIERTVAAPSVFIFPPSDEQLKSGTASVVCLLNNFYPREAKVQWKVDNALQSGNSQESVTEQDSKDSTYSLSSTLTLSKADYEKHKVYACEVTHQGLSSPVTKSFNRGEC
92.1 % of GpH7-A5/GpH7-B3/GpL16-k0 | 104 % of GpH7-A5/GpH7-B3/GpL16-k0 | GpH7-A5/GpH7-B3 variant I336_09D/GpL16-k0 (antibody, human IgG1, kappa, He Ab: mutation in one H chain only; also called He Ab) heavy 1: not shown heavy 2: not shown light: DIVMTQSPLSLPVTPGEPASISCQASESLVHSNRNTYLHWYLQKPGQSPQLLIYKVSNRFSGVPDRFSGSGSGTDFTLKISRVEAEDVGVYYCSQNTHVPPTFGQGTKVEIERTVAAPSVFIFPPSDEQLKSGTASVVCLLNNFYPREAKVQWKVDNALQSGNSQESVTEQDSKDSTYSLSSTLTLSKADYEKHKVYACEVTHQGLSSPVTKSFNRGEC
92.1 % of GpH7-A5/GpH7-B3/GpL16-k0 | 102 % of GpH7-A5/GpH7-B3/GpL16-k0 | GpH7-A5/GpH7-B3 variant I336_12R/GpL16-k0 (antibody, human IgG1, kappa, He Ab: mutation in one H chain only; also called He Ab) heavy 1: not shown heavy 2: not shown light: DIVMTQSPLSLPVTPGEPASISCQASESLVHSNRNTYLHWYLQKPGQSPQLLIYKVSNRFSGVPDRFSGSGSGTDFTLKISRVEAEDVGVYYCSQNTHVPPTFGQGTKVEIERTVAAPSVFIFPPSDEQLKSGTASVVCLLNNFYPREAKVQWKVDNALQSGNSQESVTEQDSKDSTYSLSSTLTLSKADYEKHKVYACEVTHQGLSSPVTKSFNRGEC

From patent US20150344570A1 (published 2015)
